Test results published in patent US20230310573A1 (Janssen / Centocor, published 2023).

Tests used:
[1] = molecular target: T1, Recombinant soluble RSV F stabilized in the pre-fusion conformation (soluble, processed, stabilized RSV F … (respiratory syncytial virus (RSV), UniProt P03420 26-513)); test: sandwich ELISA: antibody coated, preF titrated, CR9506-HRP detection; preF alone
T1 construct: also called RSV pre-fusion F protein; RSV prefusion F

[2] = molecular target: T1, Recombinant soluble RSV F stabilized in …; test: sandwich ELISA: antibody coated, preF titrated, CR9506-HRP detection; preF + DMSO
[3] = molecular target: T1, Recombinant soluble RSV F stabilized in …; test: sandwich ELISA: antibody coated, preF titrated, CR9506-HRP detection; preF + compound III, trimer:compound 1:3
[4] = molecular target: T1, Recombinant soluble RSV F stabilized in …; test: sandwich ELISA: antibody coated, preF titrated, CR9506-HRP detection; preF + compound VII, trimer:compound 1:3
[5] = molecular target: T1, Recombinant soluble RSV F stabilized in …; test: sandwich ELISA: antibody coated, preF titrated, CR9506-HRP detection; preF + compound III, trimer:compound 1:10
[6] = molecular target: T1, Recombinant soluble RSV F stabilized in …; test: sandwich ELISA: antibody coated, preF titrated, CR9506-HRP detection; preF + compound III, trimer:compound 1:50
[7] = molecular target: T1, Recombinant soluble RSV F stabilized in …; test: sandwich ELISA: antibody coated, preF titrated, CR9506-HRP detection; preF + compound VII, trimer:compound 1:10
[8] = molecular target: T1, Recombinant soluble RSV F stabilized in …; test: sandwich ELISA: antibody coated, preF titrated, CR9506-HRP detection; preF + compound VII, trimer:compound 1:50

B1: CR9506 (antibody, human IgG1, kappa, V domains shown)
VH: EVQLVQSGAEVKKPGSSVKVSCKASGGTFSRSLITWVRQAPGQGLEWMGEISLVFGSAKNAQKFQGRVTITADESTSTAHMEMISLKHEDTAVYYCAAHQYGSGTHNNFWDESELRFDLWGQGTLVTVSS
VL: DIVMTQSPSSLSASVGDRVTIACRASQSIGTYLNWYQQKPGKAPKLLIYAASSLQSGVPSRFSGSGSGTHFTLAISSLQAEDFATYSCQQSYTIPYTFGQGTKLEIKR
notes: An HRP-labelled CR9506 was also the detection antibody in the ELISA; also called CR9506 (pan)
In the case of B1, the IC50 [1] is reported as 0.28 nM, the EC50 [2] is reported as 0.29 nM and the “EC50 (half-maximal binding concentration)” value [3] is reported as 0.3 nM. For the same binder, the EC50 [4] was 0.32 nM, the “EC50 (half-maximal binding concentration)” value [5] was 0.29 nM and the EC50 [6] was 0.31 nM. The EC50 [7] was 0.29 nM and the “EC50 (half-maximal binding concentration)” value [8] was 0.31 nM.
